PMC10732415, “Bacteriophage-encoded 24B_1 molecule resembles herpesviral microRNAs and plays a crucial role in the development of both the virus and its host”

Biological target: Hfq (Escherichia coli, UniProt P0A6X3 1-102)
Test: EMSA; 1 mM Mg2+; Hfq up to 100 nM
Conditions: protein: recombinant; chain copies: 6; label: 32P; predicted 4-bp helix

Sequence of Hfq (P0A6X3 whole entry): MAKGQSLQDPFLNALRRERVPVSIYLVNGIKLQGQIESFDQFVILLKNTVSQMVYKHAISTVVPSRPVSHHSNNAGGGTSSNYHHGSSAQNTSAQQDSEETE

**Q.** Does UAACGUUAAGUUGACUCGGG (ssRNA) [mature 24B_1 RNA, 20 nt] bind?
**A.** no binding
